Protein production data for 20 sequences are collected here from a protein production outcome set (Wang et al. 2014).

This series can be described thus: label from the status in PepcDB records.
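Also: failed if final PepcDB status was selected cloned or expressed and not failed if soluble or beyond.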

On to “MPKEQPLYLQIVDDLEVKIKKSMTENDKLLSERELSDLYGVSRITIRLTLKELELRDLIYKKQGKGTYVSGIKEPATDLSSTYSFTEQMKKMGKTPKTEILSFEQYQVTPYLSGLLELDPDTEVFELERLRIADDMPLMFERSYIPAQPFQGLSIADLKRKALYDIFAKDYQETIRLAEEEFYASIALDYEAGLLGIKKGDPVLHIIRKTYNDKNILIELTFSIARADQFRYRVQHHPNG”, for which the protein production entry is given as “failed”.
The result for “MPKIAKELSALEVKRLTCRIDPETGEATEVRYPVGGVSGLLLRITPSGSRQWILRAKVGNRRPDMGLGPYPEISLAQARDKAREMKEKIRSGIDPLEEKRTLKRALLAEQISTLTFQKAMEKYIKMKAKEFRNPRQEKQWTNSLNTYAIPHLGKLPVREIDLPHIKQVLDPIWETKTETANRVRARIENILGWCAIHGYRSAENPARWQGYLDEVYPSPEKIKKRGHFAALPVDDMPEFMRDLKKRTGTAARALEFLILTASRTNEVIGDKRIGKAGVTWQEIDLARKVWTVPADRMKSEKIHRVPLTDSAIELLKGMGEGSPEDLIFPGPKGGIPSNNFLTALLKRMERPITAHGFRSTFKDWARERTAYADEVSELALAHVNSDATRAAYARSELIDKRRLMMADWEQFCMHGETKKESGKVVAIGEGKG” reads “failed”.
Turning to “MPKIIEAIYENGVFKPLQKVDLKEGERIKLRIEEGILDVIKKYQGKFKLTEKDIEKFLEERRLEHHHHHH”, the protein production entry is on record as “not failed”.
Consider “MPKKGSDPVWCVVMFDLPVKTKTQRKQATAFRQNLLDLGFCMAQLSVYVQYLPLAAKLSNLVKLIKEKLPPGGDVRILSVSDIQWSKMIRFSSSAEVSGEEKPDQLAIFLEHHHHHH”, for which the protein production entry is given as “not failed”.
The result for “MPKKRENRGRRKGDKGHVGYISCDQCGARVPEDKAVCVTKMYSPVDASLASELEKKGAIIARYPVTKCYCVNCAVFLGIIKIRAENERKQKARLRLEHHHHHH” reads “failed”; that for “MPKLDLDSIERRIGSVYPGRLNAAMDGRSSLRLGDAGGLSQFGVNLVRLEPGAKSSLRHYHMEQDEFVMVTEGALVLVDDQGEHPMVPGDCAAFPAGDPNGHQFVNRTDAPATFLVVGTRTPTETAYYSDMDMMVKQDASGFAFTRKDGSPLTADQIGDDNE”, “not failed”.
“MPKLDRYLLSDFTQSFLATLIVLLVVSVGGVLVDILGNIADGRIPARLLLSQVGLQFVAYLPIILPLALMLGLLLALARLYRDSEMAVITAIGVGPTRMLRPLLMLVVPVVVVIGLCSLWLGPWASRTAEAMLEDANRSVLMAGLESGQFTPLSDGGVVYMQTISADGKGLGKIFLQRQQNDRIDVVTADRGALFFEGKTDRYLHLDDGYRTEGPAGGATLDYRLMKFASSDIALPDRTRLHDANDPEVMWTTQLLSDERPAARAQLHERLAPPLLALAFAMLTLPLSRSAPRQQRYGRIMLAFLAYMVGTNLMIVGTQWIANGKAPAALGLWWLTLPLLAVAVWAYARDGRVRRPRARA”: the protein production result is given as “failed”.
To “MPKPGILKSKSMFCVIYRSSKRDQTYLYVEKKDDFSRVPEELMKGFGQPQLAMILPLDGRKKLVNADIEKVKQALTEQGYYLQLPPPPEDLLKQHLSVMGQKTDDTNK” belongs “not failed”; to “MPKSVRAENISRILKRIMKSPVSRVELAEELGLTKTTVGEIAKIFLEKGIVVEEKDSPKGVGRPTKSLKISPNCAYVLGIEVTRDEIAACLIDASMNILAHEAHPLPSQSDREETLNVMYRIIDRAKDMMEKLGSKLSALTVAAPGPIDTERGIIIDPRNFPLSQIPLANLLKEKYGIEVWVENDADMGAVGEKWYTKRDDSFAWILTGKGIGAGIIIDGELYRGENGYAGEIGYTRVFNGNEYVFLEDVCNENVVLKHVLSMGFSSLAEARDSGDVRVKEYFDDIARYFSIGLLNLIHLFGISKIVIGGFFKELGENFLKKIKIEVETHLLYKHSVDMSFSKVQEPVIAFGAAVHALENYLERVTTS”, “not failed”.
To “MPKTSHPFQLSLLALAVSAVLVSGCNSSDNDDDLATEAQVTGLTLEFAGRYSTGQFDESAAEITAFDPASRRAFVVNALSGAVDVLDMSDPVNPAKIDTLTVADIAADAVVNSVAVANGLVAVAVESNPKTDPGYVAVFGAADLQLRDSIQVGAQPDMVTFTPDGQYVLAANEGEPSDDYQVDPEGSISVVDVSNPASLTVRIADFLAFNSQESDLKASGVRIYGPGATVAQDLEPEYITVSADSRAAWVSLQENNALAKLDIDTATVTGILPLGFKDYGVEGQGIDASDDDGVINIQRWPGVVGIYHPDAIDSYQANGETFIVTANEGDARAWGEDDADYWNGDSSRGFVEELRVKHLVHPDGFARRIGDDMPSQLTALAEGALLNPSVFDYCGATAGAANACRDDDQLGRLNISWVQGYRVDENGAPVMFNASGAEDPDGTLLMYDQLYSYGTRSLAIWNEDGELVWDSGDAIEQFLASEDCRLGTARSIPCSDHFNSAHDEGMAFDSRSDAKGPEPEAVTVATFGNKTFAFLGLERMGGILVYDVTDPASPVQVDYLNTRDDWTTVDTASVLETAGDLGVESITVVAADDSPTGEPLLITGNEVSGTTAIYRVKLELTD” belongs “failed”; to “MPKVYNSIVVDAPVERVWSRIRNFHDFSWAPSLIKSCKKVGGGGGYSVGARRLLNGEFLDTLIAYSEIERRIMYSMDEGPSPVSSGEIYNYVGNLHLLPVTIDDTTFVEWSGSWESASTEAVEYMNTVYRSLLADLAAEFTSESRRSEWIDQLEHHHHHH”, “not failed”.
To “MPLASGQVFAGFTIVRLVGTGGMGEVYLAKHPRLPREDALKVLPISVSADDEFRQRFIREADMAATLWHPHIVGVHDRGEFEGRLWISMDYVDGHDAARLLHDKYPKGMPADDVVEIVTAVGDALDYAHQRQLLHRDVKPANILVTEKHGTKRRIMLTDFGIARRTDDVNGLTSTNITVGSMSYTSPEQLMGQPLDGRADQYSLAATAYRLLTGAPPFSHSNPAVVISHHLNSPPPKLGDTKPALAKLDSVMAKALAKDAKDRFDTCHDFAVALAEANKGDESAAPVTAAPPPVITPPVQTAPPTTPLKAQTLPAPPTPPTPLSPSNPQAPTASQPPVFTSSWAGHDDPSGRQPVAVPAPAPPPPPPPSNFGPPPPAYSPPPRKSGGDRRKLIIAAAAIGAVVLLVGGITLAVTSGGDNDSAGAAATTSETASETPVTTTPKKPGEHAYTIADYIRDNKISETPVHRGDPNTPELTMPTPPGWADAGTRTPAWAYSAIVNDPASPTDPPSVISLISKLDGNVDPEKLLEFAPNELQNLTEWEPIGGVTRSNLSGFPSVQLGGSYLKDGKRRAITQKTVVVDIPSGIYVLQINADSLYRDFGALVDVNKAIDKEATIKP” belongs “failed”; to “MPLHPTSQDCVVEQSVDALRERERRFRMLADNMSQLAWTASPRGQVQWYNERWYAYTGATLEAMVALGWRSVVHPEHRERVMARLQYCFATGSVWEDTFALRGKDGAFNWFLSRALPMRDAQGHITHWLGTHTDITAQVNAEEALRELNESLELRVAERTRELAKANELLQVEIAERAQAEEVLRHAQKMDAIGQLTGGIAHDFNNMLSGVLGALDMIRLRIGAQRFGEVDRYVDAAVSSANRAAALTQRLLTFARRQSLSVGTVDINCMVRSMEELLRGTVGNHAQLHIELEEGLSAIQTDEHQLENALLNLVINARDAVPVAGLISVRSQALRLVAQEGALAAGDYVRLSVEDNGCGIAQDVIDRVFDPFFTTKPVGQGTGLGLSMVYGFIKQTGGHVQIKSEQGQGTRICLYLPCGAATA”, “failed”; to “MPLLFDSQMTPITNSGWRRHWFEIVYRHDTPPSRNFDLLLMSAILGSVLVVMLDSVLILQAHWKYFLYTLEWLFTLIFTADYLIRLVVVQQRLRYVLSIWGIIDLLSILPTYLSLFMPGTQSLLIVRVLRLLRLFRILKMTHYVEESGELIQALWRSRRKVMLFICTVMTIAMIAGATMYVIEGPQHGFTSIPTGMYWAIVTMTTVGFGDITPQSTLGRFVTSALILIGYSIIAVPTGIYTAELTQGLLRSEEEHRHDMRTCPHCGLQGHDHDARYCRNCGGILPQTLHEPNPATQQ”, “failed”.
As for “MPLSVGQGYFTSSISSEKFNAIKESARLPELSLWEKIKAYFFTTHHAEALECIFNLYHHQELNLTPVQVRGAYIKLRALASQGCKEQFIIESQEHADKLIIKDDNGENILSIEVECHPEAFGLAKEINKSHPKPKNISLGDITRLVFFGDSLSDSLGRMFEKTHHILPSYGQYFGGRFTNGFTWTEFLSSPHFLGKEMLNFAEGGSTSASYSCFNCIGDFVSNTDRQVASYTPSHQDLAIFLLGANDYMTLHKDNVIMVVEQQIDDIEKIISGGVNNVLVMGIPDLSLTPYGKHSDEKRKLKDESIAHNALLKTNVEELKEKYPQHKICYYETADAFKVIMEAASNIGYDTENPYTHHGYVHVPGAKDPQLDICPQYVFNDLVHPTQEVHHCFAIMLESFIAHHYSTE”, the protein production result is “failed”.
With “MPLTDTALKALKPRDRIYSVADERGLSVEVYPTGGIVWRFRYRLAGRYEKLTLGKYPALSLRNARLKRDEAASLVAMGTSPARQKQLAKVTAADAMTVRDFAERFFREIQSRDRKDSTMPRRYLDKDILPFVGDKPMREVTAEEIRSLIWRKKEQGFDATAGQIRGVLKRLCDYAVTCGLMPTNPVLALPMRHVYKAVSRDRALSPDEIRLFLRAVWASRIRRQFKLALHLILLTMVRKSELLLARWDHVHLDQAQWHIPAEHSKTGKPHIVYLSRQAVVLFEALRVLAGGSALVMPGSGTLTRPFAHNALNHALGKAMQWQGIHAFTIHDLRRTASTWLHEHGWASDVVEKALNHSIGGVRGVYNRAEYADQRRQMLQCWADFIEKQLKTDHLLMVCHTELDGAKPGTP”, the protein production entry is reported as “failed”.
The result for “MPLTNHTPEDRVQDIFDHIAPQYDQMNSVISLGTHHWWRQRVMQAMTLHAGDFALDVCCGTGDWTIALAQAVGPAGHVVGFDFSGVMLQHATTKVRQAQLDDRITLRQGDAMQLPYPDNYFNVVTIGFGLRNVPDATQVLREMARVVKPGGQVVCLETSQPTNPLVHAGWQVYFGHVVPLMGRLAHHYQAYNYLQSSTHHFVSAKELSRLFTAAGLTQVHYDLFNLGAAAVHWGRKPYLEHHHHHH” reads “not failed”; that for “MPNAIFFYRIQRWLYLHHIPFLPKLIQLLIFLIYNTKITADSKIGKGSYFVCKGISTVLIPGTEIGENCVLGLRFSTVRKFPYKNVPKIGNNVFIGPNVVICGPVEIGDNCIVAANSFVDKSLRGG”, “failed”.
To “MPNIGIIGAGIGGLQLGLQLRQHDIPVTIYTDKTANQIAGGRLLNSVAHHGPTLERERLLGVHFWPVEEYGYSCHHHYLGGDQPMSFRGDFTNWSSAIDYRLYLPKLSEAFQERGGNLEVRMLQADDIEPIAARHDLIVVAAGRGAFASMFPRRPDLSPYDTPQRALSVGIYRGIAESDPRGVTISTSPGHGDLLEIPMYTEDGFLTALLFENIPGGDLEILAKMSYDDDPQAFNRTVLDKLARHHPQTFERVDHTQFGLHRSIDLLQGALVPTVREDYAKLPGGKFALAIGDVHTVVDPLLGQGANSASHSAWVTGEAIVEDLGFDEMFCTRVARRRADVVLGAAQWTNLMLAPPAEHVLRLFEAMNANKAVADEFTHNFDHPDRQWQILATAERTNAFLARHGIESAAALAV” belongs “failed”.
The result for “MPNNHLTAAAPAQGREAIASPMERFSQAMVAWAEKWFPDAYVFVVVACAVVALGAILHGGDPLAVSKAFGEGFWSIIPLTMQMAMVAITGYVLALSPPVARLLRALARVPSTPRGAVVFIGTLSILLSLVNWGLSLIFSGLLVREMARRNDLRLDYRAAGAAGYLGLGCGFTLGMSSSAAQLQATPASIPASLMPITGVIGFSETILTWQNLVVVILVTVVSGLVCYFTAPSPERSLTAQDLGVDLTEPEAQAAQRQRPGDYLEFSPWLTVAVVGLASGWLYLTFRSGNPFITMSQLNTYNFVFLLLGLLLHWRPRSFLESFGRAMPSIGGVMLQFPFYGGIGYVLTKVANVQGHTLSDAIAHWFVSLAHDSSVFSILVSIYSAFLGFFIPSAGGKWVIEAPYIMDAANQIQAHLGWTVMVYNIAETLPNFINPFWMLPLLGILRLKSKDLVGYTAMQFLVHFPIVVAAGAILMHTFSYVPPVIPGQ” reads “failed”.
